Type in all cases: biochemical, Rhodopirellula baltica / Penicillium amagasakiens
Substrate in series [1]: OC[C@H]1OC(O)[C@H](O)[C@@H](O)[C@@H]1O
The experiment in a line: Coupled active sites, HOCl production from glucose, all other chimeras. The conditions noted are these: glucose as substrate, pH 7.5. The method, then:
(§1) Each experiment was performed in triplicate.
(§2) The activity of the two active sites was then assessed in conjunction to each other (FIG. 1).
(§3) Briefly, the aim was to measure the production of HOCl from glucose and NaCl as respective substrates of the enzymes, using the APF probe. Two types of kinetics were performed: • i) kinetics at various concentrations of glucose and a fixed concentration of NaCl, and • ii) kinetics at various concentration of NaCl and a fixed concentration of glucose.

Substrate in series [2]: OC[C@H]1OC(O)[C@H](O)[C@@H](O)[C@@H]1O
Put plainly: Coupled active sites, HOCl production from glucose, APF assay (Table 9), linker LEKREAEA
The settings on record: other: trimer; fixed NaCl 20 mM, pH7.5; pH 7.5. On the procedure:
as §1, §2, §3

Substrate in series [3]: OC[C@H]1OC(O)[C@H](O)[C@@H](O)[C@@H]1O
Put plainly: Coupled active sites, HOCl production from glucose, APF assay (Table 9), linker LGKRGAGA
The conditions noted are these: fixed NaCl 20 mM, pH7.5, pH 7.5. On the procedure:
as §1, §2, §3

Substrate in series [4]: OC[C@H]1OC(O)[C@H](O)[C@@H](O)[C@@H]1O
The experiment in a line: Coupled active sites, HOCl production from glucose, APF assay (Table 9), linker LEKREAEALEKREAEA
The conditions noted are these: fixed NaCl 20 mM, pH7.5, pH 7.5. The method, then:
as §1, §2, §3

Residue numbers refer to the chain shown, from its start. Several values for one entry are separate records, joined by “and”; a condition that tells them apart may be missing. Equal entries are not always repeated.

The source of these data is patent US20260201347A1, “ARTIFICIAL BIFUNCTIONAL ENZYME COMPRISING A MYELOPEROXIDASE ACTIVITY AND A GLUCOSE OXIDASE ACTIVITY AND APPLICATIONS THEREOF” (UNIVERSITÉ DE BORDEAUX, priority 2022, published 2026).

A word on the kcat/Km: it is the second-order rate constant that governs catalysis at low substrate concentration. The term Km denotes the concentration of substrate that gives half-maximal velocity. Broadly, the kcat is the maximal rate divided by the concentration of active sites.

B1: RbMPO-GOx chimeras, all other chimeras (Penicillium amagasakiense) (protein)
chain: YLPAQQIDVQSSLLSDPSKVAGKTYDYIIAGGGLTGLTVAAKLTENPKIKVLVIEKGFYESNDGAIIEDPNAYGQIFGTTVDQNYLTVPLINNRTNNIKAGKGLGGSTLINGDSWTRPDKVQIDSWEKVFGMEGWNWDNMFEYMKKAEAARTPTAAQLAAGHSFNATCHGTNGTVQSGARDNGQPWSPIMKALMNTVSALGVPVQQDFLCGHPRGVSMIMNNLDENQVRVDAARAWLLPNYQRSNLEILTGQMVGKVLFKQTASGPQAVGVNFGTNKAVNFDVFAKHEVLLAAGSAISPLILEYSGIGLKSVLDQANVTQLLDLPVGINMQDQTTTTVSSRASSAGAGQGQAVFFANFTETFGDYAPQARDLLNTKLDQWAEETVARGGFHNVTALKVQYENYRNWLLDEDVAFAELFMDTEGKINFDLWDLIPFTRGSVHILSSDPYLWQFANDPKFFLNEFDLLGQAAASKLARDLTSQGAMKEYFAGETLPGYNLVQNATLSQWSDYVLQNFRPNWHAVSSCSMMSRELGGVVDATAKVYGTQGLRVIDGSIPPTQVSSHVMTIFYGMALKVADAILDDYAKSA
notes: pET21a, E. coli; heme and FAD reconstituted; GOx mature part (P81156 19-605)
Regarding B1, the kcat/Km in series [1] came out at 1 M⁻¹ s⁻¹.

B2: RbMPO-LEKREAEA-GOx chimera (Rhodopirellula baltica myeloperoxidase, SEQ ID NO: 10; linker SEQ ID NO: 7; Penicillium amagasakiens glucose oxidase, SEQ ID NO: … (protein)
chain: MLFWSKRTRKHPGRKRRRLRSEQLESRQLLAADFGGYRHNIYDAEDVNDDGRVSAIDALLVINAMTSETSRDENVFTDVNGDGRRSALDALRVINRIERGDVFPIDTSGDEDLNTLLPEMPSEVRSIDGSGNNPNDHLWGSVGQRLIRMAPAAYGDGISTLAGANRPSAREVSNVLSAMNTSQVLNDRGLSAFVYVWGQFIDHDLGLTESDEHGEAIDISVPEGDLWFDPMGSGEAVIPMTRTPIADGTGTSVGNPAQQFNQITAFIDGSMVYGSDAATAERLRTFAGGRLAISDNGLLPMDESGMVIAGDVRASENVGLTAIQTLFVREHNRLADEIFAADPEATDEEIYQRARLVVASLIQSITYNEFLPALLGQRAMDSYRGYDASVNPGIANEFSTAAFRLGHSTLRDEVGFMSNDGRESKDEMELKDAFFHASMLEETGIDSLLKFDASVQAQEIDLAVVDSLRNFLFGPPGAGGLDLVAMNIQRGRDHGLSDYNTTRQAYGLDRVETFDQITGDVELQQKLASLYGTVDNIDLWVGLMAEDHQHDASVGELTGLIIADQFQRTRDGDRFFYKNVLTDSEVESIERSTLADLIERNTSVDGLQENVFFMQVELRGRVILASSIPPNTMPSEVREEEIRGVSGMAIELIDASGKLVDSTVSDQHGNYRFRALSETGDYQVRLSESGEAMDVLVAHGAERIRGLDFIVLALEKREAEAYLPAQQIDVQSSLLSDPSKVAGKTYDYIIAGGGLTGLTVAAKLTENPKIKVLVIEKGFYESNDGAIIEDPNAYGQIFGTTVDQNYLTVPLINNRTNNIKAGKGLGGSTLINGDSWTRPDKVQIDSWEKVFGMEGWNWDNMFEYMKKAEAARTPTAAQLAAGHSFNATCHGTNGTVQSGARDNGQPWSPIMKALMNTVSALGVPVQQDFLCGHPRGVSMIMNNLDENQVRVDAARAWLLPNYQRSNLEILTGQMVGKVLFKQTASGPQAVGVNFGTNKAVNFDVFAKHEVLLAAGSAISPLILEYSGIGLKSVLDQANVTQLLDLPVGINMQDQTTTTVSSRASSAGAGQGQAVFFANFTETFGDYAPQARDLLNTKLDQWAEETVARGGFHNVTALKVQYENYRNWLLDEDVAFAELFMDTEGKINFDLWDLIPFTRGSVHILSSDPYLWQFANDPKFFLNEFDLLGQAAASKLARDLTSQGAMKEYFAGETLPGYNLVQNATLSQWSDYVLQNFRPNWHAVSSCSMMSRELGGVVDATAKVYGTQGLRVIDGSIPPTQVSSHVMTIFYGMALKVADAILDDYAKSA
notes: 6His (in the pET21a vector behind the XhoI site); made in house; host or cells: E. coli BL21Star (DE3)
For the protein B2, in series [2], the Michaelis constant (Km) is listed as 10.62 ± 8.25 mM, the kcat was determined as 0.000109 s⁻¹ and the kcat/Km turned out to be 0.01 ± 0.011 M⁻¹ s⁻¹.

B3: RbMPO-LGKRGAGA-GOx chimera (Rhodopirellula baltica myeloperoxidase, SEQ ID NO: 10; linker SEQ ID NO: 5; Penicillium amagasakiens glucose oxidase, SEQ ID NO: … (protein)
chain: B2 chain with E715G, E718G, E720G
notes: as for B2
B3: in series [3] (other: dimer/monomer), the Km is 66.9 ± 24.1 mM, the kcat was found to be 0.00305 s⁻¹ and the kcat/Km was determined as 0.046 ± 0.025 M⁻¹ s⁻¹. Also, in series [3] (other: excluded), the Km amounted to 2.27 ± 1.30 mM, the turnover number (kcat) was 0.00133 s⁻¹ and the kcat/Km is 0.586 ± 0.384 M⁻¹ s⁻¹. For the same protein, in series [3] (other: trimer), the Km is listed as 2.022 ± 0.644 mM, the catalytic constant (kcat) was 0.0022 s⁻¹ and the kcat/Km stood at 1.09 ± 0.801 M⁻¹ s⁻¹.

B4: RbMPO-LEKREAEALEKREAEA-GOx chimera (Rhodopirellula baltica myeloperoxidase, SEQ ID NO: 10; linker SEQ ID NO: 6; Penicillium amagasakiens glucose oxidase, SEQ … (protein)
chain: MLFWSKRTRKHPGRKRRRLRSEQLESRQLLAADFGGYRHNIYDAEDVNDDGRVSAIDALLVINAMTSETSRDENVFTDVNGDGRRSALDALRVINRIERGDVFPIDTSGDEDLNTLLPEMPSEVRSIDGSGNNPNDHLWGSVGQRLIRMAPAAYGDGISTLAGANRPSAREVSNVLSAMNTSQVLNDRGLSAFVYVWGQFIDHDLGLTESDEHGEAIDISVPEGDLWFDPMGSGEAVIPMTRTPIADGTGTSVGNPAQQFNQITAFIDGSMVYGSDAATAERLRTFAGGRLAISDNGLLPMDESGMVIAGDVRASENVGLTAIQTLFVREHNRLADEIFAADPEATDEEIYQRARLVVASLIQSITYNEFLPALLGQRAMDSYRGYDASVNPGIANEFSTAAFRLGHSTLRDEVGFMSNDGRESKDEMELKDAFFHASMLEETGIDSLLKFDASVQAQEIDLAVVDSLRNFLFGPPGAGGLDLVAMNIQRGRDHGLSDYNTTRQAYGLDRVETFDQITGDVELQQKLASLYGTVDNIDLWVGLMAEDHQHDASVGELTGLIIADQFQRTRDGDRFFYKNVLTDSEVESIERSTLADLIERNTSVDGLQENVFFMQVELRGRVILASSIPPNTMPSEVREEEIRGVSGMAIELIDASGKLVDSTVSDQHGNYRFRALSETGDYQVRLSESGEAMDVLVAHGAERIRGLDFIVLALEKREAEALEKREAEAYLPAQQIDVQSSLLSDPSKVAGKTYDYIIAGGGLTGLTVAAKLTENPKIKVLVIEKGFYESNDGAIIEDPNAYGQIFGTTVDQNYLTVPLINNRTNNIKAGKGLGGSTLINGDSWTRPDKVQIDSWEKVFGMEGWNWDNMFEYMKKAEAARTPTAAQLAAGHSFNATCHGTNGTVQSGARDNGQPWSPIMKALMNTVSALGVPVQQDFLCGHPRGVSMIMNNLDENQVRVDAARAWLLPNYQRSNLEILTGQMVGKVLFKQTASGPQAVGVNFGTNKAVNFDVFAKHEVLLAAGSAISPLILEYSGIGLKSVLDQANVTQLLDLPVGINMQDQTTTTVSSRASSAGAGQGQAVFFANFTETFGDYAPQARDLLNTKLDQWAEETVARGGFHNVTALKVQYENYRNWLLDEDVAFAELFMDTEGKINFDLWDLIPFTRGSVHILSSDPYLWQFANDPKFFLNEFDLLGQAAASKLARDLTSQGAMKEYFAGETLPGYNLVQNATLSQWSDYVLQNFRPNWHAVSSCSMMSRELGGVVDATAKVYGTQGLRVIDGSIPPTQVSSHVMTIFYGMALKVADAILDDYAKSA
notes: as for B2
Regarding B4, the Km in series [4] (other: dimer/monomer) is recorded as 2.02 ± 1.07 mM. For the same protein, in series [4] (other: excluded), the Michaelis-Menten constant (Km) turned out to be 14.17 ± 4.62 mM, the kcat is 0.00015 s⁻¹ and the kcat/Km is 0.01 ± 0.004 M⁻¹ s⁻¹. Also, in series [4] (other: trimer), the Km is 0.77 ± 0.50 mM; the kcat is 0.00137 s⁻¹; the specificity constant (kcat/Km) is 1.7 ± 1.34 M⁻¹ s⁻¹ and 1.77 M⁻¹ s⁻¹.
